Laboratory results reported in paper PMC8892353 (Proceedings of the National Academy of Sciences of the …, 2022).

B1: Recombinant human COA7 (natural protein)
chain: MAGMVDFQDEEQVKSFLENMEVECNYHCYHEKDPDGCYRLVDYLEGIRKNFDEAAKVLKFNCEENQHSDSCYKLGAYYVTGKGGLTQDLKAAARCFLMACEKPGKKSIAACHNVGLLAHDGQVNEDGQPDLGKARDYYTRACDGGYTSSCFNLSAMFLQGAPGFPKDMDLACKYSMKACDLGHIWACANASRMYKLGDGVDKDEAKAEVLKNRAQQLHKEQQKGVQPLTFG
B2: Recombinant Y137C COA7 (^Y137CCOA7) (natural protein, human)
chain: MAGMVDFQDEEQVKSFLENMEVECNYHCYHEKDPDGCYRLVDYLEGIRKNFDEAAKVLKFNCEENQHSDSCYKLGAYYVTGKGGLTQDLKAAARCFLMACEKPGKKSIAACHNVGLLAHDGQVNEDGQPDLGKARDCYTRACDGGYTSSCFNLSAMFLQGAPGFPKDMDLACKYSMKACDLGHIWACANASRMYKLGDGVDKDEAKAEVLKNRAQQLHKEQQKGVQPLTFG

How the values were obtained:
COA7 = COA7 (Homo sapiens, UniProt Q96BR5); assay: biochemical
AUC = biological target: the molecule itself; assay: AUC

Row | Molecule | Kd (COA7) [nM] | stoichiometry N (AUC)
1 | C=CC1=C(C)C2=Cc3c(C=C)c(C)c4[n]3[Fe]([Cl])[n]3c(c(C)c(CCC(=O)O)c3=CC3=NC(=C4)C(C)=C3CCC(=O)O)=CC1=N2 [hemin] | 1400 ± 280 | –
2 | B1 | – | 2
3 | B2 | – | 2
